Source: publication PMC11965572
Where “and” joins values, the source holds several entries; their conditions need not be identical. Equal values may be shown once.

Target: wild-type human ACE2-Fc (human) (UniProt Q9BYF1)
Assay: SEC; protein A-purified wild-type ACE2-Fc fractionated on a Superdex 200 column

## wild-type human ACE2-Fc (from UniProt Q9BYF1 18-728) (Fc fusion)
  percent as higher oligomers: 18%
  percent as tetramers: 9%
  percent in a dimeric state: 73%
  stoichiometry N: 2 and 4
